The record followed here is PMC8891041.

The target in the experiment is human parathyroid hormone type 1 receptor (hPTHR) (human) (UniProt Q03431). The experiment in a line: radioligand binding.
Sequence of UniProt Q03431 (Q03431 27-593): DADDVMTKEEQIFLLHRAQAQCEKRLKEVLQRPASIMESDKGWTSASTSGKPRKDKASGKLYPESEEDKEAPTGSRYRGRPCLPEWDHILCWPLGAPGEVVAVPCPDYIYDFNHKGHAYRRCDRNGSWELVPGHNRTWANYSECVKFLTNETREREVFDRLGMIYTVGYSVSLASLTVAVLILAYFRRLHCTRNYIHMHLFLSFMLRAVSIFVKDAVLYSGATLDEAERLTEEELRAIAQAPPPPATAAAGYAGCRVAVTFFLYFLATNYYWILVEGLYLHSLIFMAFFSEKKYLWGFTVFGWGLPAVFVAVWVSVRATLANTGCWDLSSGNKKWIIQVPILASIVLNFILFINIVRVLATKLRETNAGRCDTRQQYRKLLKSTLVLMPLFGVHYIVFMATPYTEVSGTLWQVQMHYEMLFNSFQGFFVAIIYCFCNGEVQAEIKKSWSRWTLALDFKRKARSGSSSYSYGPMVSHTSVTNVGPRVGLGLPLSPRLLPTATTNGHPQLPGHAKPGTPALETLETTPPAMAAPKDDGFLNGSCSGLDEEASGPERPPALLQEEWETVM

PTH(1-34) (peptide) gave a pKi of 8.26.

In the case of M-PTH(1-15) (peptide), the pKi was 10.8.

For orientation: pKi means the Ki on a negative log10 scale, so that one unit is a factor of ten. Read a low pKi as a large Ki.
